# Source: the DeepSol protein solubility set
# Test: soluble on expression in E. coli; label from the status in PepcDB or PDB records
row,Sequence,soluble on expression in E. coli
1,MAHHHHHHMRGEHELVIPGEQRRDWCSTDACENRLCRKKFSLLVSKQHCQWCGRIFCDNCAPCTATYGGRRLRRCNSCKFPAVFRSLRNLRTGKRDGSVARLIMSFLDSRSINALMHSCYTSLSEFNVGDYVYYESITDRFPTFFEGAMIGKGGFGSVYKCEDRSYPCRRRVALKVITKASVVTYRSWKKIVTELEIMQDVDHHNVAKLLEVLQTPHHLVIVMEAGDGGSLMQAWRLAKEYKYDVEVLVANVVLQVAEGLDYLYHKKGIVHRDIKLENIVLSHDFKRVMIIDFGLAEYVKQCETQLFVPCGTAGYTSPENIRAVVERRRVYEALGETMHLADMYSLGVVAYVLLCGHMPVATRCFSSLYQNMLKGIRCVGPHWANVSDDAKSLVESLVKTNSFERATVAVIREHPFIQAKAPLIVEIVQRHMHKQTETERREVKEWVYVEPLSDHWDMIEVETVSDEENRGLALRKGSSTFGRVGFMNRLKSVVWD,not soluble
2,MVTFREMDISDYNEVIALWATTENVSLRDADSRPNIEAYLKRNQGLSFVAVSDSLVIGAVLVGTDGRRGYVQHLAVSSDFRGQGIGKSLIQKATDALSRIGISKTHLFVLIENVVAQDFYTKLDWYPRDEIRMFSYNSSSNPEV,not soluble
3,MRIVYCISGTCNSGGMERVLSNKANYLAAHGYEVTIVTTDQRGRRPFFALDGRIECVDLDVNYETNNGKSFFNKLVHYPFKQLKHKRRLTKVLNLIKPDITVSMFCNDVAFLPSIQDGSKKVLEVHFSRFKRLQYDRKGLWRLADKWRNRNEQRQVACFDKFVVLTHEDKDYWEGHANIEVIPNAQTFACDVPAALESKTVVAVGRYTYQKGFDMLLRAWRRVCDSIDDWQLHIVGEGEMKESLQQQILDLSLEDRVELCPATSDIQSVYREASVLVLSSRYEGFGMVLLEAQTAGVPTVSFDCKCGPSDIVADGVTGYLVPANDIPALAEKLLVLMRDETLRKQMGRNAFADASRFSEKAVMQRWTDLFENFR,not soluble
4,MMTRKKELAIALSKLKGFKNPKVWLEQYRTPGNAASELLWLAYSLGDIEGKVVADLGAGTGVLSYGALLLGAKEVICVEVDKEAVDVLIENLGEFKGKFKVFIGDVSEFNSRVDIVIMNPPFGSQRKHADRPFLLKAFEISDVVYSIHLAKPEVRRFIEKFSWEHGFVVTHRLTTKIEIPLQFFFHRKKLERITVDIYRFSKVINSR,soluble
5,MELVHEIAIDPNFQIPDKPTNAIQRCVQESMHKAYYNQLRRDLAKDPPELEYCFSFLMEVKTMILDDILTAQHTRLKAEINSMLDETALRGKLDQGQLDIKKVMKYIVDLCSRLCSPARDVKVAELRTRTDVIDIFEGTMDLLELMKNDLTNYQISQNRAAIEEYSSKHEYDMFQKFLIENPNGCYFARQWLKAAYDELFEKKLDAEGEETSVKKERKNEDTDTVLIDTTSRGYTKLIQVNEYDGFPETLKIDKIKIELLAEKFLQIVMCASSVFVTCNVAGKQISESADFKKTLKDHLIVITNNTDEERIKSDLEKIGEQCVKEAVDTSKKLNIEWNTESSTSIRNQINALISSDNPIRKLVHTRVSTFVEEMLRSPTSVPHRLLPGLSVIQSELCAFTSKFLRLCVHNRKTFYAMYSNLIQEFQGHTPSTHAIYRADSPSSMPGPSTSA,not soluble
6,SNAMRMIDIIEKKRDGHTLTTEEINFFIGGYVKGDIPDYQASSLAMAIYFQDMNDDERVALTMAMVNSGDMIDLSDIKGVKVDKHSTGGVGDTTTLVLAPLVAAVDVPVAKMSGRGLGHTGGTIDKLEAIDGFHVEIDEATFVKLVNENKVAVVGQSGNLTPADKKLYALRDVTGTVNSIPLIASSIMSKKIAAGADAIVLDVKTGSGAFMKTLEDAEALAHAMVRIGNNVGRNTMAIISDMNQPLGRAIGNALELQEAIDTLKGQGPKDLTELVLTLGSQMVVLANKAETLEEARALLIEAINSGAALEKFKTFIKNQGGDETVIDHPERLPQAQYQIEYKAKKSGYVTELVSNDIGVASMMLGAGRLTKEDDIDLAVGIVLNKKIGDKVEEGESLLTIHSNRQDVDDVVKKLDSSITIADHVVSPTLIHKIITE,soluble
7,MEWILFDKDGTLIEFDRSWEKIGVRFVQSLLETFPVHNKEAALRQLGVIKESIDPKSVMGSGSLQQIIQAFNDVTGQDTTDWSKSTSQKLVDERIPEINWVEGVKEALIDLKAKGYQLGIVTSDTKKGVEQFLAHTNAISLFDLIISTEADAYEKPNPKVLSPLFEQYNVDPQKVAIVGDTANDMKTASNANLGMAIGVLTGIATKEELHEADIILNSAADILEALN,not soluble
8,SLKAIKNGTILTGTGETIKQGTLLIQDGKVLEVGQRVDTPANAKLIDATGKYVTPGLIDVHTHIGVFSEGLGRTGHDFNETTAAATPYIRAIDGIYPFDQGFEDARQSGVTTVQIMPGSANVIGGEMVTVKTAGTVVDEMIVRAPSGMKAAFGENPKNVHGGKGKLPATRMGVAALFRQQLYQAQDYLKRFEKGELEKRDLGMEQLAKVLRKEIPLRVHAHRADDIATVLRMVDEFDLEATIEHCTEGHLIADHIAKYNVKVSVGPTMTSRTKQELVNKGWHTLIELEKHGIPFSITTDHPVVTINHLVTSAIQAVKAGLSEQSAFQAITLRAAEHIGVEQQVGSLEKGKDGDFVIWSDHPFTATAQVEATYINGKCVTGSHC,not soluble
9,SGALWDVPSPAATQKATLSEGVYRIMQRGLFGKTQVGVGIHMEGVFHTMWHVTRGSVICHETGRLEPSWADVRNDMISYGGGWRLGDKWDKEEDVQVLAIEPGKNPKHVQTKPGLFKTLTGEIGAVTLDFKPGTSGSPIINKKGKVIGLYGNGVVTKSGDYVSAITQAERIGEGPDYEVDEDIFRKKRLTIMDLHPGAGKTKRILPSIVREALKRRLRTLILAPTRVVAAEMEEALRGLPIRYQTPAVKSDHTGREIVDLMCHATFTTRLLSSTRVPNYNLIVMDEAHFTDPCSVAARGYISTRVEMGEAAAIFMTATPPGSTDPFPQSNSPIEDIEREIPERSWNTGFDWITDYQGKTVWFVPSIKAGNDIANCLRKSGKRVIQLSRKTFDTEYPKTKLTDWDFVVTTDISEMGANFRAGRVIDPRRCLKPVILTDGPERVILAGPIPVTPASAAQRRGRIGRNPAQEDDQYVFSGDPLKNDEDHAHWTEAKMLLDNIYTPEGIIPTLFGPEREKTQAIDGEFRLRGEQRKTFVELMRRGDLPVWLSYKVASAGISYKDREWCFTGERNNQILEENMEVEIWTREGEKKKLRPKWLDARVYADPMALKDFKEFASGRK,soluble
10,MGSDKIHHHHHHMKLKTKTMEWSGNSLKLLDQRKLPFIEEYVECKTHEEVAHAIKEMIVRGAPAIGVAAAFGYVLGLRDYKTGSLTDWMKQVKETLARTRPTAVNLFWALNRMEKVFFENADRENLFEILENEALKMAYEDIEVNKAIGKNGAQLIKDGSTILTHCNAGALATVDYGTALGVIRAAVESGKRIRVFADETRPYLQGARLTAWELMKDGIEVYVITDNMAGWLMKRGLIDAVVVGADRIALNGDTANKIGTYSLAVLAKRNNIPFYVAAPVSTIDPTIRSGEEIPIEERRPEEVTHCGGNRIAPEGVKVLNPAFDVTENTLITAIITEKGVIRPPFEENIKKILEV,not soluble
11,MGSDKIHHHHHHMELLNSMSKSLDQLLSLVNHSEIASIKATLSKIIEVIHNPESSVMDLKNLIEIDPPLAANVLRRANSAFYGMRRGIHSIMDAIIFIGFDAVKELTLNQKFFELFQKNGVEIHGYSRRVLWEHSIGVALCGKLIYRREFRKNGGDMYTAGLIHDIGIIVEDQFLHAELLSILADKEEHERDLHSAEADVLGYCHEDIGKRLAEDWNFPEELCLVLGEAERPETSEGPRLLLADTLYVANCACQLRKVGFSELGRLDRPAYEDCLNRLRIKERALDFIMDEVNAQIALMKNDGWF,not soluble
12,GPGSMMASFTPLDNFKSRSRGVMPTGIVIDKSCRVYVTQIPLERIERDGASAMKSEFEVYGPLESYKMFTDRSGRFIGSALCTYRNPADASMAVYCMDGVEVEGSTLHVEPAKEHGVVLLASGSSSGGNGQHRDHSRGFLRDTQRQWGRGGRGGAGLLGAGRGSGYSTTGREDASNTSELDLCAEELGLAATDGVSPSAANGKWSHDKYEMMAEGKDMDEVLG,not soluble
